Laboratory results published in article PMC5371819, “Structural intermediates and directionality of the swiveling motion of Pyruvate Phosphate Dikinase” (Scientific Reports, 2017).

Target: the molecule itself
Assay: crystal structure; FtPPDK 10 mg/mL co-crystallized with 20 mM PEP and 10 mM NADH, microbatch, 17% PEG 3350, 100 mM MOPS pH 7, 100 mM magnesium formate, 21 °C; PDB 5JVJ, two monomers in the ASU

B1: Pyruvate phosphate dikinase from Flaveria trinervia (C4-isoform) (enzyme, UniProt P22221 78-953, looked up)
chain: TAKKRVFTFGKGRSEGNRDMKSLLGGKGANLAEMSSIGLSVPPGLTISTEACEEYQQNGKSLPPGLWDEISEGLDYVQKEMSASLGDPSKPLLLSVRSGAAISMPGMMDTVLNLGLNDEVVAGLAGKSGARFAYDSYRRFLDMFGNVVMGIPHSLFDEKLEQMKAEKGIHLDTDLTAADLKDLVEKYKNVYVEAKGEKFPTDPKKQLELAVNAVFDSWDSPRANKYRSINQITGLKGTAVNIQSMVFGNMGNTSGTGVLFTRNPSTGEKKLYGEFLINAQGEDVVAGIRTPEDLGTMETCMPEAYKELVENCEILERHYKDMMDIEFTVQENRLWMLQCRTGKRTGKGAVRIAVDMVNEGLIDTRTAIKRVETQHLDQLLHPQFEDPSAYKSHVVATGLPASPGAAVGQVCFSAEDAETWHAQGKSAILVRTETSPEDVGGMHAAAGILTARGGMTSHAAVVARGWGKCCVSGCADIRVNDDMKIFTIGDRVIKEGDWLSLNGTTGEVILGKQLLAPPAMSNDLEIFMSWADQARRLKVMANADTPNDALTARNNGAQGIGLCRTEHMFFASDERIKAVRKMIMAVTPEQRKVALDLLLPYQRSDFEGIFRAMDGLPVTIRLLDPPLHEFLPEGDLEHIVNELAVDTGMSADEIYSKIENLSEVNPMLGFRGCRLGISYPELTEMQVRAIFQAAVSMTNQGVTVIPEIMVPLVGTPQELRHQISVIRGVAANVFAEMGVTLEYKVGTMIEIPRAALIAEEIGKEADFFSFGTNDLTQMTFGYSRDDVGKFLQIYLAQGILQHDPFEVIDQKGVGQLIKMATEKGRAANPSLKVGICGEHGGEPSSVAFFDGVGLDYVSCSPFRVPIARLAAAQVIV
notes: domains NBD aa 1-340, CD aa 380-515, PBD aa 535-874; Cloned into pET-16b with a histidine10 tag and a TEV site; Co-crystallized with PEP and NADH (5JVJ) or PEP and 2'-Br-dAppNHp (5JVL); also called FtPPDK; C4-PPDK
B1: binds.
